According to publication PMC10544015 (Journal of Medicinal Chemistry, 2023):
“Also recorded” adds a separate entry of the source. Like-named read-outs stand apart in the source and are kept apart here. Bridge positions count the residues as written; N and C are the ends. Square brackets hold non-standard residues; d marks the D form. Triazole bridges read from a SMILES are 1,4-linked. Peptide text beside a SMILES is read from it. Lys(N3) = [N-]=[N+]=NCCCC[C@H](N)C(=O)O; Orn(N3) = [N-]=[N+]=NCCC[C@H](N)C(=O)O; Hpra = C#CCC[C@H](N)C(=O)O; Pra = C#CC[C@H](N)C(=O)O; Ahx = NCCCCCC(=O)O

Key:
circular dichroism = conditions: PBS (10 mM phosphate, 137 mM NaCl, 2.7 mM KCl); pH 7.4; rt °C; 100 uM
human plasma = conditions: 37 °C
Panx1 channels [1] = target: T1, Panx1 channels (Homo sapiens, UniProt Q96RD7); assay: HOS-induced ATP release assay in EA.hy926 endothelial cells; assay type: cell-based
T1 construct: host or cells: EA.hy926 human endothelial cells
Method: Similar to B16-BL6 cells, a 2–3-fold enhancement of ATP release from EA.hy926 cells was observed upon HOS stimulation (Figure 7E). However, the absolute levels of ATP release were lower in these endothelial cells (around 300 vs 500–600 nM in B16-BL6 cells). As expected, Pbn reduced HOS-induced ATP release from EA.hy926 cells, albeit by a lower fraction than the one observed in B16-BL6 cells (Figure 7E vs7A). The reason for this different efficacy of Pbn is unknown but may be due to its nonspecific action on other ATP release channels or transporters,[68] of which the expression naturally varies among different cell types. […] The water-soluble double-stapled ^10Panx1 peptidomimetic SBL-PX1-206 reduced HOS-induced ATP release from EA.hy926 cells by about 25% at 12.5 μM. […] Stapled and double-stapled ^10Panx1 analogues were also not cytotoxic when tested at 100 and 12.5 μM in EA.hy926 cells (Supporting Information, Figure S8).
Triplicates were performed for each independent experiment.

B16-BL6 cells = assay: LDH cytotoxicity assay in B16-BL6 cells; assay type: cell-based, mouse; conditions: peptides 100 to 6.25 µM, Pbn 2.5 mM, HOS solution
Panx1 channels [2] = target: Panx1 channels (Mus musculus, UniProt Q9JIP4); assay: HOS-induced ATP release assay in B16-BL6 cells; conditions: B16-BL6, read-out: % ATP release inhibition at 100µM (in B16-BL6 cells)
Sequence of Panx1 channels (Mus musculus, UniProt Q9JIP4) (Q9JIP4 whole entry): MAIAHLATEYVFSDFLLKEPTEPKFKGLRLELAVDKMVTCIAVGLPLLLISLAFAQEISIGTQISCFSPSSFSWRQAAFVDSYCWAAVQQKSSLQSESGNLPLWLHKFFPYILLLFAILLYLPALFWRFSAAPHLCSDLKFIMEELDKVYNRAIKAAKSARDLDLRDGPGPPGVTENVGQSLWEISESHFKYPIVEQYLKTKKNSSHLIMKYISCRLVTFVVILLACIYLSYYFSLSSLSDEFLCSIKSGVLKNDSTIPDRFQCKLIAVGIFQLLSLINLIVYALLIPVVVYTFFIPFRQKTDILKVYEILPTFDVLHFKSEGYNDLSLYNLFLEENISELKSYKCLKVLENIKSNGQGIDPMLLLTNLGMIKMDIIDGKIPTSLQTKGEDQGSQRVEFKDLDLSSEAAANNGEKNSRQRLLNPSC

T1 sequence (Q96RD7 whole entry): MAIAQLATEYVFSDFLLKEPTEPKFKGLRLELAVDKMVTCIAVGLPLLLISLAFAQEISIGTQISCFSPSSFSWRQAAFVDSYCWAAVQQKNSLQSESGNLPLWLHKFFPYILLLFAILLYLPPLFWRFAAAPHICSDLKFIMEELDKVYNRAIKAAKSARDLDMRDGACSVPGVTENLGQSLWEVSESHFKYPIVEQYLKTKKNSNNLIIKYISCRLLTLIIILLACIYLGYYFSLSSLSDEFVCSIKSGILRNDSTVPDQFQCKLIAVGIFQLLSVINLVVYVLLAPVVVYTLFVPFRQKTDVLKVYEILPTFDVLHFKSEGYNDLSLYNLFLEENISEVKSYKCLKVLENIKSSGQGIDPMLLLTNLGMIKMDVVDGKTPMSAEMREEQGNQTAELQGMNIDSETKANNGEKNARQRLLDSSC

Compound | helicity (circular dichroism) | other results
CC(=O)N[C@@H](CO)C(=O)N[C@@H](Cc1c[nH]c2ccccc12)C(=O)N[C@@H](CCCNC(=N)N)C(=O)N[C@@H](CCC(N)=O)C(=O)N[C@@H](C)C(=O)N[C@@H]1Cc2cn(nn2)CCCC[C@@H](C(=O)N[C@@H](Cc2ccc(O)cc2)C(N)=O)NC(=O)[C@H](CC(=O)O)NC(=O)[C@H](C(C)C)NC(=O)[C@H](Cc2ccccc2)NC1=O | 7% | 
CC(=O)N[C@H]1CCc2cn(nn2)CCCC[C@@H](C(=O)N[C@@H](C)C(=O)N[C@@H](Cc2ccccc2)C(=O)N[C@H](C(=O)N[C@@H](CC(=O)O)C(=O)N[C@@H](CO)C(=O)N[C@@H](Cc2ccc(O)cc2)C(N)=O)C(C)C)NC(=O)[C@H](CCC(N)=O)NC(=O)[C@H](CCCNC(=N)N)NC(=O)[C@H](Cc2c[nH]c3ccccc23)NC1=O (Ac-[Hpra]WRQ[Lys(N3)]AFVDSY-NH2; triazole 1-5) | 26% | 
CC(=O)N[C@@H](CO)C(=O)N[C@@H](Cc1c[nH]c2ccccc12)C(=O)N[C@@H](CCCNC(=N)N)C(=O)N[C@@H](CCC(N)=O)C(=O)N[C@@H](C)C(=O)N[C@@H](C)C(=O)N[C@H]1Cc2cn(nn2)CCC[C@@H](C(N)=O)NC(=O)[C@H](CO)NC(=O)[C@H](CC(=O)O)NC(=O)[C@H](C(C)C)NC1=O (Ac-SWRQAA[Pra]VDS[Orn(N3)]-NH2; triazole 7-11) | 6% | 
CC(=O)N[C@H]1Cc2cn(nn2)CCC[C@@H](C(=O)N[C@@H](C)C(=O)N[C@@H](Cc2ccccc2)C(=O)N[C@H](C(=O)N[C@@H](CC(=O)O)C(=O)N[C@@H](CO)C(=O)N[C@@H](Cc2ccc(O)cc2)C(N)=O)C(C)C)NC(=O)[C@H](CCC(N)=O)NC(=O)[C@H](CCCNC(=N)N)NC(=O)[C@H](Cc2c[nH]c3ccccc23)NC1=O (Ac-[Pra]WRQ[Orn(N3)]AFVDSY-NH2; triazole 1-5) | 14% | 
Ac-SWRQA*FVD*Y-NH2 |  | cleaved bond (human plasma; up to 24 h): R-Q, major; also recorded: A-*, major
CC(=O)N[C@@H](CO)C(=O)N[C@@H](Cc1c[nH]c2ccccc12)C(=O)N[C@@H](CCCNC(=N)N)C(=O)N[C@@H](CCC(N)=O)C(=O)N[C@@H](C)C(=O)N[C@@H](C)C(=O)N[C@H]1Cc2cn(nn2)CCCC[C@@H](C(N)=O)NC(=O)[C@H](CO)NC(=O)[C@H](CC(=O)O)NC(=O)[C@H](C(C)C)NC1=O (Ac-SWRQAA[Pra]VDS[Lys(N3)]-NH2; triazole 7-11) | 37% | 
WRQAAFVDSY |  | cleaved bond (human plasma; cited from earlier work): Trp74-Arg75; also recorded: Ala78-Phe79
CC(=O)N[C@@H](CO)C(=O)N[C@@H](Cc1c[nH]c2ccccc12)C(=O)N[C@@H](CCCNC(=N)N)C(=O)N[C@@H](CCC(N)=O)C(=O)N[C@@H](C)C(=O)N[C@H]1Cc2cn(nn2)CCC[C@@H](C(=O)N[C@@H](Cc2ccc(O)cc2)C(N)=O)NC(=O)[C@H](CC(=O)O)NC(=O)[C@H](C(C)C)NC(=O)[C@H](Cc2ccccc2)NC1=O (Ac-SWRQA[Pra]FVD[Orn(N3)]Y-NH2; triazole 6-10) | 17% | 
CC(=O)N[C@H]1CCCCn2cc(nn2)C[C@@H](C(=O)N[C@@H](C)C(=O)N[C@@H](Cc2ccccc2)C(=O)N[C@H](C(=O)N[C@@H](CC(=O)O)C(=O)N[C@@H](CO)C(=O)N[C@@H](Cc2ccc(O)cc2)C(N)=O)C(C)C)NC(=O)[C@H](CCC(N)=O)NC(=O)[C@H](CCCNC(=N)N)NC(=O)[C@H](Cc2c[nH]c3ccccc23)NC1=O (Ac-[Lys(N3)]WRQ[Pra]AFVDSY-NH2; triazole 1-5) | 20% | 
R-*WRQ**FVD*Y-NH2 (m = 1; n = 4; R = K-Ahx-) |  | cleaved bond (human plasma; up to 24 h): K-Ahx, major, 8 hours
Ac-*WRQ*AFVDSY-NH2 |  | cleaved bond (human plasma; up to 24 h): A-F, major; also recorded: D-S, major; not cleaved (human plasma; up to 24 h): amide bonds within the macrocycle remained intact for several hours
CC(C)[C@H](NC(=O)[C@H](Cc1ccccc1)NC(=O)[C@H](C)NC(=O)[C@H](C)NC(=O)[C@H](CCC(N)=O)NC(=O)[C@H](CCCNC(=N)N)NC(=O)[C@H](Cc1c[nH]c2ccccc12)NC(=O)CCCCCNC(=O)[C@@H](N)CCCCN)C(=O)N[C@@H](CC(=O)O)C(=O)N[C@@H](CO)C(=O)N[C@@H](Cc1ccc(O)cc1)C(=O)O [SBL-PX1-214] (H-K[Ahx]WRQAAFVDSY-OH) |  | inhibition at 100 µM (Panx1 channels [1]; EA.hy 926, 100 µM, 30 min HOS stimulation, read-out: % ATP release inhibition at 100µM (in EA.hy926 cells)): 30%
CC(=O)N[C@@H](CO)C(=O)N[C@@H](Cc1c[nH]c2ccccc12)C(=O)N[C@@H](CCCNC(=N)N)C(=O)N[C@@H](CCC(N)=O)C(=O)N[C@@H](C)C(=O)N[C@@H](C)C(=O)N[C@@H](Cc1ccccc1)C(=O)N[C@H]1Cc2cn(nn2)CCC[C@@H](C(N)=O)NC(=O)[C@H](Cc2ccc(O)cc2)NC(=O)[C@H](CO)NC(=O)[C@H](CC(=O)O)NC1=O (Ac-SWRQAAF[Pra]DSY[Orn(N3)]-NH2; triazole 8-12) | 12% | 
CC(=O)N[C@@H]1Cc2cn(nn2)CCCC[C@@H](C(=O)N[C@@H](C)C(=O)N[C@@H](Cc2ccccc2)C(=O)N[C@H](C(=O)N[C@@H](CC(=O)O)C(=O)N[C@@H](CO)C(=O)N[C@@H](Cc2ccc(O)cc2)C(N)=O)C(C)C)NC(=O)[C@H](CCC(N)=O)NC(=O)[C@H](CCCNC(=N)N)NC(=O)[C@H](Cc2c[nH]c3ccccc23)NC1=O | 18% | 
CC(C)[C@H](NC(=O)[C@H](Cc1ccccc1)NC(=O)[C@H](C)NC(=O)[C@H](C)NC(=O)[C@H](CCC(N)=O)NC(=O)[C@H](CCCNC(=N)N)NC(=O)[C@@H](N)Cc1c[nH]c2ccccc12)C(=O)N[C@@H](CC(=O)O)C(=O)N[C@@H](CO)C(=O)N[C@@H](Cc1ccc(O)cc1)C(=O)O [^10Panx1, WRQAAFVDSY] (H-WRQAAFVDSY-OH) |  | cytotoxicity (extracellular LDH) (B16-BL6 cells): no cytotoxicity; inhibition at 100 µM (Panx1 channels [2]): 19%; inhibition at 100 µM (Panx1 channels [1]; EA.hy 926, read-out: % ATP release inhibition at 100µM (in EA.hy926 cells)): 24%
CC(=O)N[C@@H](CO)C(=O)N[C@@H](Cc1c[nH]c2ccccc12)C(=O)N[C@@H](CCCNC(=N)N)C(=O)N[C@@H](CCC(N)=O)C(=O)N[C@@H](C)C(=O)N[C@H]1CCc2cn(nn2)CCCC[C@@H](C(=O)N[C@@H](Cc2ccc(O)cc2)C(N)=O)NC(=O)[C@H](CC(=O)O)NC(=O)[C@H](C(C)C)NC(=O)[C@H](Cc2ccccc2)NC1=O (Ac-SWRQA[Hpra]FVD[Lys(N3)]Y-NH2; triazole 6-10) | 28% | 
CC(=O)N[C@@H](CO)C(=O)N[C@@H](Cc1c[nH]c2ccccc12)C(=O)N[C@@H](CCCNC(=N)N)C(=O)N[C@@H](CCC(N)=O)C(=O)N[C@@H](C)C(=O)N[C@H]1CCCCn2cc(nn2)C[C@@H](C(=O)N[C@@H](Cc2ccc(O)cc2)C(N)=O)NC(=O)[C@H](CC(=O)O)NC(=O)[C@H](C(C)C)NC(=O)[C@H](Cc2ccccc2)NC1=O (Ac-SWRQA[Lys(N3)]FVD[Pra]Y-NH2; triazole 6-10) | 32% | 
CC(=O)N[C@@H](CO)C(=O)N[C@@H](Cc1c[nH]c2ccccc12)C(=O)N[C@@H](CCCNC(=N)N)C(=O)N[C@@H](CCC(N)=O)C(=O)N[C@@H](C)C(=O)N[C@@H](C)C(=O)N[C@@H](Cc1ccccc1)C(=O)N[C@H]1Cc2cn(nn2)CCCC[C@@H](C(N)=O)NC(=O)[C@H](Cc2ccc(O)cc2)NC(=O)[C@H](CO)NC(=O)[C@H](CC(=O)O)NC1=O (Ac-SWRQAAF[Pra]DSY[Lys(N3)]-NH2; triazole 8-12) | 30% | 
